Source: patent US9072737B2, “tPA mutant in the treatment of acute brain injury and neurodegenerative disorders” (HADASIT MEDICAL RESEARCH SERVICES & DEVELOPMENT LTD., priority 2008, dated 2015)
“Also recorded” adds a separate entry of the source.

B1: tPA-S481A: Recombinant human tPA with Ser481 to Ala point mutation, catalytically inactive, two extra N-terminal residues RS, SEQ ID NO. 1 (protein, listed as Homo sapiens)
chain: RSGARSYQVICRDEKTQMIYQQHQSWLRPVLRSNRVEYCWCNSGRAQCHSVPVKSCSEPRCFNGGTCQQALYFSDFVCQCPEGFAGKCCEIDTRATCYEDQGISYRGTWSTAESGAECTNWNSSALAQKPYSGRRPDAIRLGLGNHNYCRNPDRDSKPWCYVFKAGKYSSEFCSTPACSEGNSDCYFGNGSAYRGTHSLTESGASCLPWNSMILIGKVYTAQNPSAQALGLGKHNYCRNPDGDAKPWCHVLKNRRLTWEYCDVPSCSTCGLRQYSQPQFRIKGGLFADIASHPWQAAIFAKHRRSPGERFLCGGILISSCWILSAAHCFQERFPPHHLTVILGRTYRVVPGEEEQKFEVEKYIVHKEFDDDTYDNDIALLQLKSDSSRCAQESSVVRTVCLPPADLQLPDWTECELSGYGKHEALSPFYSERLKEAHVRLYPSSRCTSQHLLNRTVTDNMLCAGDTRSGGPQANLHDACQGDAGGPLVCLNDGRMTLVGIISWGLGCGQKDVPGVYTKVTNYLDWIRDNMRP
B2: WT tPA: Recombinant wild type human tissue plasminogen activator expressed in S2 Drosophila system, SEQ ID NO. 2 (protein, listed as Homo sapiens)
chain: GARSYQVICRDEKTQMIYQQHQSWLRPVLRSNRVEYCWCNSGRAQCHSVPVKSCSEPRCFNGGTCQQALYFSDFVCQCPEGFAGKCCEIDTRATCYEDQGISYRGTWSTAESGAECTNWNSSALAQKPYSGRRPDAIRLGLGNHNYCRNPDRDSKPWCYVFKAGKYSSEFCSTPACSEGNSDCYFGNGSAYRGTHSLTESGASCLPWNSMILIGKVYTAQNPSAQALGLGKHNYCRNPDGDAKPWCHVLKNRRLTWEYCDVPSCSTCGLRQYSQPQFRIKGGLFADIASHPWQAAIFAKHRRSPGERFLCGGILISSCWILSAAHCFQERFPPHHLTVILGRTYRVVPGEEEQKFEVEKYIVHKEFDDDTYDNDIALLQLKSDSSRCAQESSVVRTVCLPPADLQLPDWTECELSGYGKHEALSPFYSERLKEAHVRLYPSSRCTSQHLLNRTVTDNMLCAGDTRSGGPQANLHDACQGDSGGPLVCLNDGRMTLVGIISWGLGCGQKDVPGVYTKVTNYLDWIRDNMRP

Assays:
CHI mice [1] = assay: Neurological severity score (NSS) in closed head injury (CHI) model; format: in vivo; settings: for NSS at day 20 following CHI: FIG. 2, 100 μg/mice i.p. two hours after CHI, compared with saline control
Excerpt: Briefly, after induction of ether anesthesia, a midline longitudinal incision was made, the skin was retracted and the skull was exposed. The left anterior frontal area was identified and a Teflon tipped cone (2-mm diameter) was placed 1 mm lateral to the midline, in the midcoronal plane. The head was held in place manually and a 75-g weight was dropped on the cone from a height of 18 cm, resulting in focal injury to the left hemisphere. […] In sham controls only anesthesia and skin incision were carried out.
Animals were awarded one point for failure to perform one item, so that scores can range from zero (healthy uninjured animals) to a maximum of 10, indicating severe neurological dysfunction, with failure to perform all tasks. The NSS obtained 1 h after trauma reflects the initial severity of injury and is inversely correlated with the neurological outcome. Animals were evaluated 5 h after CHI, and every two to three days until 20 days later. Each animal was assessed by an observer who was blinded to the treatment.
tPA has been reported to signal within the central nervous system by activating NMDA-R, a receptor for glutamine, implicated in neurotoxicity and exictotoxic neuronal cell death, through the cleavage of the NR-1 subunit of NMDA-R. The inventors therefore examined the effect of inhibiting tPA activation of NMDA-R on acute brain trauma, using a tPA mutated molecule devoid of serine protease catalytic activity. […] The effect of administering mutant tPA compositions was assessed using neurobehavioral evaluation based on the determination of a neurological severity score (NSS).

CHI mice [2] = assay: Brain lesion size at day 20 post CHI; format: in vivo; settings: p<0.005 vs control animals
Description: After the last NSS evaluation (day 20 post CHI) the brains were then extracted and sectioned coronally into 1-mm segments. The sections were photographed and the area of each section was determined using the NIH computer image analysis program. Any missing area was estimated by overlaying the affected section with images from the contralateral side from the same animal. The volume of the missing portion of the brain was defined as the sum of the missing areas in all sections multiplied by their thickness expressed in cubic pixels. […] Taken together, the data collected indicate that the tPA-S481A has a neuroprotective effect.

[3] = tested on: Blood Brain Barrier (BBB); assay: Blood brain barrier permeability, Evans blue uptake into brain; format: in vivo, mice; settings: single i.p. injection 1 mg/kg, FIG. 3 and FIG. 4A
Description: The uptake of Evans blue dye into a brain tissue served as a marker to for quantifying disruption of the blood-brain barrier and increase in permeability of the BBB. […] Data was expressed as absorbance at 620 nm per gram of tissue. The mean±SEM of data from 8-9 animals/group are shown.
FIG. 4A. Mice were injected i.p. with 25 μl of saline or saline containing either WT-tPA or mtPA (1 mg/kg each) alone or together with PAI-1 derived 18 amino acids (aa) (as denoted by SEQ ID NO. 8) or 6 aa (as denoted by SEQ ID NO. 3) peptides (1 mg/kg each). Ten minutes later, the mice were given an i.v. injection of 2% Evans blue (EB) in saline. One hour after injection of dye, organs were cleared of blood by transcardiac perfusion. […] Extruded dye was quantified by absorbance at 620 nm. The figure presents a histogram illustration of the absorbance of EB at […] per gram of tissue. […]
To determine the effect of injection of tPA-S^481A on BBB function, anesthetized mice were injected i.p. with 25 μl of saline or saline containing tPA or tPA mutant (tPA-Ser^481Ala) (1 mg/kg each), followed by the intravenous injection of 2% Evans blue in saline. Evans blue was quantified by absorbance at 620 nm.
Plasminogen activator inhibitor-1 (PAI-1) is recognized as the inhibitor of tPA. […] Extruded dye was quantified by absorbance at 620 nm. Data are expressed in FIG. 4A as absorbance per gram of tissue.

[4] = tested on: Blood Brain Barrier (BBB) after CHI; assay: Duration of BBB permeability after CHI, Evans blue extravasation; format: in vivo, mice; settings: mtPA i.p. 1, 2 or 3 hours after CHI; EB measured one hour after dye; FIG. 5
Description: Mice were treated with i.p. injection of mtPA 1, 2 or 3 hours after CHI. Five minutes after mtPA injection, the animals were given an IV injection of 2% Evans blue (EB) in saline. Extravasation of EB was measured one hour after injection of the dye. The figure presents a histogram illustration of the absorbance of EB at 620 nM per gram of tissue. The mean±SEM of data from 8-9 animals/group is shown. Abbreviations: Abs (Absorbance), T (time), h (hour), min. (minutes).
To examine the effect of tPA-S481A (mtPA) on BBB permeability after opening due to CHI, the tPA mutant was injected to 8-9 mice i.p. 1, 2 or 3 hours after CHI. Mice undergoing CHI alone served as controls for the indication of normal BBB behavior after head trauma. In both groups, the extravasation of EB was measured one hour after injection of the dye.

CHI mice [5] = assay: Lactate and glutamate concentration in CSF after CHI; format: in vivo; settings: 100 μg/mice i.p. two hours after CHI
Description: CSF samples were taken from the cisterna magna in anaesthetized mice, using a microcapillary as described by others. Samples were immediately frozen at −70° C. until analysis by high-performance liquid chromatography (HPLC). Glutamate and lactate were derivatized using ortho-phthaldialdehyde/b-mercaptoethanol and the samples were injected onto the column. Peaks were detected using a fluorescence detector.
Therefore, groups of 8-9 animals were injected with mutant tPA, (100 μg/mice) in saline or saline alone intraperitoneally (i.p.) two hours after the head trauma and, the concentration of lactate and glutamate in the CSF have been measured.

plasminogen = assay: PA catalytic activity of tPA mutant; format: biochemical; settings: data not shown
Excerpt: Tissue type plasminogen activator (tPA) a multidomain, glycosylated, serine protease is a fibrin specific activator of plasminogen and a very effective thrombolytic agent. It should be appreciated that “mutated tPA” or “mtPA” as used herein includes a mutated native tPA and recombinant mutated tPA, as well as modified forms of tPA that is devoid of the enzymatic activities of native tPA. More specifically, as used herein in the specification and in the claims section below, the term “devoid of protease or serine protease catalytic activity” and its derivatives refers to a mutated tPA molecule having impaired, decreased or reduced expression of activity. A preferred mutated tPA molecule lacks any catalytic activity. According to one embodiment of the present invention at least about 10-100%, more specifically, about 10%, 15%, 20%, 25%, 30%, 35%, 40%, 45%, 50%, 55%, 60%, 65%, 70%, 75%, 80%, 85%, 90%, 95%, 99% and even 100% of the tPA activity is abolished by the point mutation performed by the invention, as compared to the WT (wild type) tPA activity. It should be noted that the enzymatic activity of tPA can be measured by assessing the ability of the molecule to convert plasminogen to plasmin.

Molecule | neurological severity score (NSS) (CHI mice [1]; FIG. 1, 100 μg/mice i.p. two hours after head trauma, 10-point scale) | NSS at day 20 following CHI (CHI mice [1]) | Lesion size (volume of missing portion of the brain) (CHI mice [2]) [pixels] | BBB permeability (Evans blue absorbance at 620 nm per gram of tissue) ([3]; 1 mg/kg) | duration of increased BBB permeability after CHI [4] | accumulation of lactate in CSF post-TBI (CHI mice [5]; FIG. 6A) | accumulation of glutamate in CSF post-TBI (CHI mice [5]; FIG. 6B) | PA catalytic activity (plasminogen) | BBB permeability (Evans blue absorbance at 620 nm per gram of tissue) [3]
B1 | 0.43 | significantly improved initial (not shown) and long-term (FIG. 2) neurological outcome | 41525±10987 | increased BBB permeability similar to the results of wild type; also recorded: increases BBB permeability to the same extent as WT-tPA | markedly extended the duration of increased BBB permeability | clearly alleviates the accumulation | clearly alleviates the accumulation | lacks any PA catalytic activity | –
B2 | – | significantly higher than that of control mice | 167289±31456 | – | – | – | – | – | increased BBB permeability
